Source: publication PMC2664085

Experiments:
[1] = substrate: N[C@@H](CCC(=O)N[C@@H](CSc1ccc([N+](=O)[O-])cc1[N+](=O)[O-])C(=O)NCC(=O)O)C(=O)O; test: ATP-dependent uptake of 3H-DNPSG into RLIP76-proteoliposomes, filtration; assay type: biochemical, Homo sapiens; settings: ATP co-substrate, 37°C, 5 min, random bi-bi fit, labelled compound
[2] = substrate: Nc1ncnc2c1ncn2[C@@H]1O[C@H](COP(=O)(O)OP(=O)(O)OP(=O)(O)O)[C@@H](O)[C@H]1O; test: ATP dependence of 3H-DNPSG uptake into RLIP76-proteoliposomes; assay type: biochemical, Homo sapiens; settings: co-substrate DNP-SG, 37°C, 5 min, random bi-bi fit

B1: recombinant RLIP76 (Homo sapiens) (protein)
chain: MTECFLPPTSSPSEHRRVEHGSGLTRTPSSEEISPTKFPGLYRTGEPSPPHDILHEPPDVVSDDEKDHGKKKGKFKKKEKRTEGYAAFQEDSSGDEAESPSKMKRSKGIHVFKKPSFSKKKEKDFKIKEKPKEEKHKEEKHKEEKHKEKKSKDLTAADVVKQWKEKKKKKKPIQEPEVPQIDVPNLKPIFGIPLADAVERTMMYDGIRLPAVFRECIDYVEKYGMKCEGIYRVSGIKSKVDELKAAYDREESTNLEDYEPNTVASLLKQYLRDLPENLLTKELMPRFEEACGRTTETEKVQEFQRLLKELPECNYLLISWLIVHMDHVIAKELETKMNIQNISIVLSPTVQISNRVLYVFFTHVQELFGNVVLKQVMKPLRWSNMATMPTLPETQAGIKEEIRRQEFLLNCLHRDLQGGIKDLSKEERLWEVQRILTALKRKLREAKRQECETKIAQEIASLSKEDVSKEEMNENEEVINILLAQENEILTEQEELLAMEQFLRRQIASEKEEIERLRAEIAEIQSRQQHGRSETEEYSSESESESEDEEELQIILEDLQRQNEELEIKNNHLNQAIHEEREAIIELRVQLRLLQMQRAKAEQQAQEDEEPEWRGGAVQPPRDGVLEPKAAKEQPKAGKEPAKPSPSRDRKETSI
Km [1]: 55 ± 4 µM
Km [2]: 4.4 ± 0.7 mM
